From patent publication US20200230184A1

Target: human ApoB100 (human) (UniProt P04114)
Experiment: cell-based or functional assay

Sequence of UniProt P04114 (P04114 28-4563 limits assumed): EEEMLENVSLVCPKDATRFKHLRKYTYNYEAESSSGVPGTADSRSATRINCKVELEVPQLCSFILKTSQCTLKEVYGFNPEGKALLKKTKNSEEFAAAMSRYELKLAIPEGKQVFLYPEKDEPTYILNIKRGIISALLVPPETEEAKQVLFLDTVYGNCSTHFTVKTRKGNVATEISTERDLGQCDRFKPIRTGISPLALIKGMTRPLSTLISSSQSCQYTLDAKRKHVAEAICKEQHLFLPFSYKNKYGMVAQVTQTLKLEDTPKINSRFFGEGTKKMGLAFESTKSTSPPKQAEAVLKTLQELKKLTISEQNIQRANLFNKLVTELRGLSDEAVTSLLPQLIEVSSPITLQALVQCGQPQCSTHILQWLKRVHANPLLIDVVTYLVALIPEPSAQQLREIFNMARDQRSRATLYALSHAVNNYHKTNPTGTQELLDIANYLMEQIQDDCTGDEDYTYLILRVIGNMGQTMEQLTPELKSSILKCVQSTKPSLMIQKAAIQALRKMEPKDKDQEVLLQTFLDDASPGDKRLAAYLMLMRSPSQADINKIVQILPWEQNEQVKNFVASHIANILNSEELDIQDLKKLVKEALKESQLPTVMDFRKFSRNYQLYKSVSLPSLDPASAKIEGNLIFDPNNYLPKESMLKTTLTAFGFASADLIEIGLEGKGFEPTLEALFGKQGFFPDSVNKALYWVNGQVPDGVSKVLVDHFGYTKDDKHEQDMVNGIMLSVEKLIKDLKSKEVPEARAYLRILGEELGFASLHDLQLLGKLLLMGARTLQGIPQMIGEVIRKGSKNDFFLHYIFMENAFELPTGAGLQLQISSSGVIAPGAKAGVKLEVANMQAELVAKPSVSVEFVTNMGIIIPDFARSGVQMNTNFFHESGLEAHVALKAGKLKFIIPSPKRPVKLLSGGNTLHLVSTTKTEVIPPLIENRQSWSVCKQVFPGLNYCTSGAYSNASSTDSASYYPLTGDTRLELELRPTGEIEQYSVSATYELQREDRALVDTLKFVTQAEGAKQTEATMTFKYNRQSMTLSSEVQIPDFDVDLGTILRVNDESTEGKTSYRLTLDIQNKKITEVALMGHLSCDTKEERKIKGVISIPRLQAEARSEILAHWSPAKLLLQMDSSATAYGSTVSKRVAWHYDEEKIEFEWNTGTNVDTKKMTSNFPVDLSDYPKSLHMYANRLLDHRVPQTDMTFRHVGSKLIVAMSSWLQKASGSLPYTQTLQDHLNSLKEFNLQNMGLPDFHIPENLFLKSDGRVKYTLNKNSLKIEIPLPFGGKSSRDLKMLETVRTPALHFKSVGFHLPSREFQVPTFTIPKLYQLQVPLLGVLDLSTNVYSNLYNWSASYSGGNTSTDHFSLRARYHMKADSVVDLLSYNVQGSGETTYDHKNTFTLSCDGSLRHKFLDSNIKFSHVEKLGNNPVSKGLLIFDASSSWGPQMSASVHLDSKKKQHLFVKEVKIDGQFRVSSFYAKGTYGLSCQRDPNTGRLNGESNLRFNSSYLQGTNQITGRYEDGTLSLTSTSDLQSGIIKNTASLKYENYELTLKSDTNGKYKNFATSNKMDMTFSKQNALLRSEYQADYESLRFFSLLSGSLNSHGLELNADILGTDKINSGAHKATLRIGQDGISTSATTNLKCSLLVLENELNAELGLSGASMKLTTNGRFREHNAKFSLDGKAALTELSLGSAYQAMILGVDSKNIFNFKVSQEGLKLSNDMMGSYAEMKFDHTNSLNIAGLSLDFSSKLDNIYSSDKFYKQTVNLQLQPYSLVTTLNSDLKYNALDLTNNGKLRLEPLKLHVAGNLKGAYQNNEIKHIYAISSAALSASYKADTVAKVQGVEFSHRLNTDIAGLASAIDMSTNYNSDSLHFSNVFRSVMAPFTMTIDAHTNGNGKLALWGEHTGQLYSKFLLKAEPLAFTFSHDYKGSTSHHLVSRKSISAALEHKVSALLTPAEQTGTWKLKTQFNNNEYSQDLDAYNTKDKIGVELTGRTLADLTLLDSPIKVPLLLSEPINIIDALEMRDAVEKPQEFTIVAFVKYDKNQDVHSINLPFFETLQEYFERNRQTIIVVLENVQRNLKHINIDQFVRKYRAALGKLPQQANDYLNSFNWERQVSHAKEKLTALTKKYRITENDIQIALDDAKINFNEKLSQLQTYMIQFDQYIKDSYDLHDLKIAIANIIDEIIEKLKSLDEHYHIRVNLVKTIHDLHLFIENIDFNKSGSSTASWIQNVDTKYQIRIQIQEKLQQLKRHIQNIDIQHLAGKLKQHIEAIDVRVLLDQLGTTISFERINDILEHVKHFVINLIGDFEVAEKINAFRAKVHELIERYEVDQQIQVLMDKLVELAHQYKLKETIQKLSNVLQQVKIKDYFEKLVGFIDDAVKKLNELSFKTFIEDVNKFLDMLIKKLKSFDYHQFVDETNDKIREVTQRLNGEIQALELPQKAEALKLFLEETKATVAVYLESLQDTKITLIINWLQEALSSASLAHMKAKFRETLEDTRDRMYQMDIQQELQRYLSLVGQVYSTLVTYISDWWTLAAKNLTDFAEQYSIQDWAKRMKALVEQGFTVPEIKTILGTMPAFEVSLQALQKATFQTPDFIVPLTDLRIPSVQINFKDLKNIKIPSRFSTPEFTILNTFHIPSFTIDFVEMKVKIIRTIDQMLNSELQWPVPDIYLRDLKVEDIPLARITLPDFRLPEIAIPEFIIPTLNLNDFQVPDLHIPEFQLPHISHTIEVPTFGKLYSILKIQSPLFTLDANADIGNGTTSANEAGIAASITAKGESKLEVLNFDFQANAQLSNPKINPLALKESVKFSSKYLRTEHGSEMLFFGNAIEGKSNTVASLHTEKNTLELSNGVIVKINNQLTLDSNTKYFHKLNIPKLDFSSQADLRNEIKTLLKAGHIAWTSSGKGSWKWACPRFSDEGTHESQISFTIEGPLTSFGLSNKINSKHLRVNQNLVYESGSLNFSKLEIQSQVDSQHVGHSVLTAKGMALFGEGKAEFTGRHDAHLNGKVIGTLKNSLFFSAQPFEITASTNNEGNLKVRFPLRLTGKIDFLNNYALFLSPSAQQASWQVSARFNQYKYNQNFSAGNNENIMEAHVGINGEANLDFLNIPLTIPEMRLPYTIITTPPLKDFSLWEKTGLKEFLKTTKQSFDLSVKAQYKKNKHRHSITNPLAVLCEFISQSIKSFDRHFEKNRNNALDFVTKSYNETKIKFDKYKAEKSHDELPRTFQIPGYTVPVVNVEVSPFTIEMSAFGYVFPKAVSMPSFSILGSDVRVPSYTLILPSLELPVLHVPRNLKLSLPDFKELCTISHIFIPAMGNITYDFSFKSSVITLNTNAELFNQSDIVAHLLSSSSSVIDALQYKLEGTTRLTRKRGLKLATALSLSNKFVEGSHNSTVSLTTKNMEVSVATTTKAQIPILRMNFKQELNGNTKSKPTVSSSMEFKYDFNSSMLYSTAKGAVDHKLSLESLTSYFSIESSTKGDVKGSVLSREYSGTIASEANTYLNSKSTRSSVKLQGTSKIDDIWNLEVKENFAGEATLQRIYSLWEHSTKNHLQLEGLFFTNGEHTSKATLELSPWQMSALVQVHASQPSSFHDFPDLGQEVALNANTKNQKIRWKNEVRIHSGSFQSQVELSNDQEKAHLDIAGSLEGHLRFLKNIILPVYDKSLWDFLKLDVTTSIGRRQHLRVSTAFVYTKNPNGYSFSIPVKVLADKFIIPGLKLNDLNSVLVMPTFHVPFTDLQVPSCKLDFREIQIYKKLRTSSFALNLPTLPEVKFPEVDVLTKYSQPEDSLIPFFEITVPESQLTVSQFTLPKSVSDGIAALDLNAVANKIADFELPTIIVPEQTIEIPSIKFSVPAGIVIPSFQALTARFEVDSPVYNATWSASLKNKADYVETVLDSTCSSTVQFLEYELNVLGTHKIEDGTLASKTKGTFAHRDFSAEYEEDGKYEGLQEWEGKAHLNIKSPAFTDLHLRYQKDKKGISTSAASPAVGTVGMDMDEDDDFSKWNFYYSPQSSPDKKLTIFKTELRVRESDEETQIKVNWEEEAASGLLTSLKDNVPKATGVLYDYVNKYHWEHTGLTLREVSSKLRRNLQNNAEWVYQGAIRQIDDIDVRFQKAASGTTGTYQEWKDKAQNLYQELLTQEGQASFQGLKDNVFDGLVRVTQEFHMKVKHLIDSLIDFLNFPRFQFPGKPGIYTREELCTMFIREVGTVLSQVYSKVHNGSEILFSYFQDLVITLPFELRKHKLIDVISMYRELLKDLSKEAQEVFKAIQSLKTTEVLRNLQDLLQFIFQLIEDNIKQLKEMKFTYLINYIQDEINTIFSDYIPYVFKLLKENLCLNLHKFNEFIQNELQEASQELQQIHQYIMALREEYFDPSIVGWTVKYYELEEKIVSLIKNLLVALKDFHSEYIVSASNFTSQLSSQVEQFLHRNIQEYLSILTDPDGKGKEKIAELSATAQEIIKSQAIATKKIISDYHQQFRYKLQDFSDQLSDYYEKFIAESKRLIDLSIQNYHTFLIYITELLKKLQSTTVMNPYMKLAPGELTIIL

Substance: human low density lipoprotein receptor (hLDLR) (from UniProt P01130 22-860)
- reduction of serum cholesterol in LAHB mice after AAV8.TBG.hLDLR (% reduction of serum cholesterol): 30
